Data from patent US20250101071A1 (PAUL EHRLICH INSTITUT BUNDESINSTITUT F R IMPFSTOFFE UND …, published 2025).

B1: recombinant human CD32a extracellular domain with C-terminal His-tag, biotinylated (H167R) (receptor)
chain: QAAAPPKAVLKLEPPWINVLQEDSVTLTCQGARSPESDSIQWFHNGNLIPTHTQPSYRFKANNNDSGEYTCQTGQTSLSDPVHLTVLSEWLVLQTPHLEFQEGETIMLRCHSWKDKPLVKVTFFQNGKSQKFSRLDPTFSIPQANHSHSGDYHCTGNIGYTLFSSKPVTITVQVPSMGSSSPMG
notes: also called CD32a-His; recombinant CD32a protein; not shown: C-terminal His-tag
B2: DARPin 53.A8 (designed binder)
chain: DLGKKLLEATRAGQDDEVRILMANGANVNATDEEGLTPLHLAALDGHLEIVEVLLKYGADVNADDMHGPTPLHLAAYAGHLEIVEVLLKYGADVNAYDCGGHTPLHLAARLGHLEIVEVLLKYGADVNAQDKFGKTPFDLAIDNGNEDIAEVLQKAA

Key:
Test in all cases: SPR, Biacore T200, biotinylated CD32a on neutravidin chip, DARPin as analyte
DARPin 52.H6 = target: DARPin 52.H6
DARPin 53.C8 = target: DARPin 53.C8
DARPin 53.H3 = target: DARPin 53.H3
DARPin 53.2F11[TEV] = target: DARPin 53.2F11[TEV]
DARPin 53.D8 = target: DARPin 53.D8
DARPin 53.2.F11 = target: DARPin 53.2.F11
[1] = target: B1

Measured: Kd

B1
not listed: [1]
< 2 nM: all other assays above

B2
< 2 nM: [1]
